Tests used:
[1] = Bleeding time and tolerability in pigs; type: in vivo, Yorkshire-Hampshire pigs
Protocol: (§1) Aspirin was administered orally on a daily basis. Placebo controls consisted of aspirin. Saline controls and solCD39 were administered as a single bolus. Time points were measured following this administration. Blood samples were obtained via an external jugular vein catheter. […] ADP-induced platelet aggregation was measured at specific time intervals following administration. The concentration of CD39 in serum as a function of time was measured using an ELISA assay.

[2] = Murine model of stroke (middle cerebral artery occlusion); type: in vivo, mice
Protocol: Anesthetized mice were maintained at 37±2° C. during and for 90 min following surgery. A midline neck incision was made and the right carotid artery exposed. Middle cerebral artery occlusion was accomplished by advancing a 13-mm heat-blunt tipped 6-0 nylon suture via an arteriotomy in the external carotid stump. The external carotid artery was cauterized to secure hemostasis, and arterial flow reestablished. […] Surgical staples were used for wound closure. […]

platelets = assay: ADP-induced platelet aggregation after solCD39 bolus in pigs; type: in vivo, Yorkshire-Hampshire pigs; details: high dose solCD39
Protocol: as §1

[3] = Phosphate release assay for ATPase activity; type: biochemical; details: for ATPase activity, CPM × 10^3 (net counts): Table 3, 5-day 1× COS-1 sups
Protocol: This example describes an ATPase assay that may be used to track enzyme activity. Samples (approximately 100 μl of either concentrated CM or purified polypeptide) are combined with 20 μl of 10× assay buffer (200 mM HEPES, 1.2 M NaCl, 50 mM KCl, 15 mM CaCl2, 15 mM MgCl2 and 3 mM ATP) and sterile water is added to a final volume of 200 μl. Radiolabeled ATP (0.8 μCi γ [^32P] ATP; Amersham, Arlington Heights, Ill.) is added and the mixture incubated for 20 minutes at 37° C. […] After centrifugation (14K rpm for 10 minutes), the supernatant is assayed for free ^32P using a scintillation counter. Data are expressed as raw counts or net counts, or as picomoles of ATP degraded per minute. […] The transfections were repeated and the CM (10, 20 and 30 μL, unconcentrated) was assayed essentially as described in Example 7. […] ATPase levels in CM from COS-1 cells transfected with pIL2LFlagSolCD39 increased with time in culture over at least 4 days post-transfection. To determine whether activity was affected by removal of the N-terminal FLAG® tag, COS-1 cells were transfected with pIL2LFlagSolCD39 and pIL2LSolCD39 and supernatants (sups) were harvested after 5 days. Samples of 10, 20 and 30 μL of 1× sups were assayed for ATPase activity as described in Example 7. […] The expression of Trim1 and Trim2 constructs was analyzed in COS-1 cells cultured in 10 cm plates. After 5 days of incubation, 1× supernatants were examined via ELISA (using anti-CD39) and the phosphate-release assay described in Example 7. […] Expression levels, however, appeared to be reduced 3-4 fold.

[4] = system: injured coronary artery segments; assay: Percutaneous transluminal coronary angioplasty (balloon injury) study
Text: Porcine platelets and fibrinogen were labeled with ^111Indium and ^125Iodine respectively for infusion into pigs. […] Oral ASA was given to all pigs for at least three day prior to the coronary angioplasty procedure, and heparin (100 U/kg) was given at the time of the angioplasty. One to three days prior to the angioplasty an external jugular line was inserted to administer the labeled platelets and fibrin, CD39 or saline, and to facilitate blood draws. Labeled platelets and fibrinogen were given approximately 18 hours prior to balloon injury. Coronary arteries were injured using an oversize balloon. A coronary guide catheter was first advanced into the ascending aorta. An oversized balloon was then advanced into a coronary vessel and inflated at 6 to 8 atmospheres for a total of thirty seconds. The balloon was then deflated and withdrawn. The average ratio of balloon size to vessel size was 1.32 for the placebo group and 1.29 for the CD39 group.
Platelet aggregation and bleeding time were measured 30 minutes after administration. […] Moreover, no bleeding was noted during PTCA or after sheath removal and there was no significant difference in hematocrit or platelet counts between the groups.
After the radioactivity decayed, toluidine-blue stained injured coronary artery segments were examined histologically, in order to further characterize the extent of thrombus formation. A blinded observer qualitatively evaluated the degree of histologic injury in the coronary segments by assessing, on a scale of 1-4 with 4 being the most severe injury, the severity of medial and internal elastic lamina tear, medial separation, and hemorrhage. A composite injury score was obtained by totaling, the three individual scores. The medial injury scores for the placebo and CD39 groups were 2.5 and 2.2 respectively; medial separation scores for the placebo and CD39 groups were 2.0 and 1.6 respectively; the degree of hemorrhage for the placebo and CD39 groups were 2.3 and 2.5 respectively. The composite injury scores for the placebo and CD39 groups were […] and 6.2 respectively. These in vivo results correlate well with results, reported herein, obtained in vitro and ex vivo.

[5] = Mouse lung ischemia-reperfusion survival model; type: in vivo, C57BL/6 mice; details: 8 mg/kg i.v.
Protocol: C57BL/6 mice were anesthetized and ventilated, and their thoraces were opened to surgically expose both pulmonary hila. Either physiological saline or soluble CD39 (8 mg/kg) was administered intravenously, after which the left pulmonary hilum was cross-clamped for one hour. The cross-clamp was removed for three hours of reperfusion, and then a cross-clamp was applied to the right hilum for a thirty minute observation period. This latter maneuver effectively removed the normal lung from circulation, so that the mouse must survive on the function of the post-ischemic left lung. The results are shown, in the form of a Kaplan-Meier survival plot, in FIG. 23.

murine platelets = assay: Ex vivo aggregation of murine platelets; type: in vivo, C57BL/6J mice; details: PRP 1 hour after soluble CD39 4 mg/kg or aspirin 5 mg/kg
Protocol: C57BL/6J mice (6-8 wk) were obtained from Jackson Laboratories (Bar Harbor, Me.). […] 80 μL of 3.8% trisodium citrate was added to each mL of blood. […] The PRP contained 400-700×10^3 platelets per μL. All experiments were completed within 2 hours of blood collection. PRP (200 μL) was preincubated, for 3 min. at 37° C., with 100 μL Tris-buffered saline buffer ([…], 5 mM glucose, pH 7.4) in an aggregometer cuvette (Lumiaggregometer; Chrono-Log, Havertown, Pa.), and the platelet agonists ADP, collagen, or sodium arachidonate were added at the final concentrations indicated.

[6] = administered three hours following stroke induction
[7] = prior to, or up to 3 h following, stroke
[8] = 670 μg/kg i.v. plus heparin and ASA, 24 hours after balloon injury

B1: solCD39: recombinant soluble human CD39, untagged: 12 mature huIL2 residues, three amino acid linker, sol CD39 (SEQ ID NO:7) (protein)
chain: MALWIDRMQLLSCIALSLALVTNSAPTSSSTKKTQLTSSTQNKALPENVKYGIVLDAGSSHTSLYIYKWPAEKENDTGVVHQVEECRVKGPGISKFVQKVNEIGIYLTDCMERAREVIPRSQHQETPVYLGATAGMRLLRMESEELADRVLDVVERSLSNYPFDFQGARIITGQEEGAYGWITINYLLGKFSQKTRWFSIVPYETNNQETFGALDLGGASTQVTFVPQNQTIESPDNALQFRLYGKDYNVYTHSFLCYGKDQALWQKLAKDIQVASNEILRDPCFHPGYKKVVNVSDLYKTPCTKRFEMTLPFQQFEIQGIGNYQQCHQSILELFNTSYCPYSQCAFNGIFLPPLQGDFGAFSAFYFVMKFLNLTSEKVSQEKVTEMMKKFCAQPWEEIKTSYAGVKEKYLSEYCFSGTYILSLLLQGYHFTADSWEHIHFIGKIQGSDAGWTLGYMLNLTNMIPAEQPLSTPLSHST
anemia or thrombocytopenia ([1]; pig, in vivo): did not induce | tolerability ([1]; pigs, 72-670 μg/kg bolus): well tolerated | fibrin accumulation in the ipsilateral hemisphere ([2]; 8 mg/kg, Western blot): decreased | postischemic cerebral perfusion / blood flow ([2]; 24 hours after stroke induction): improved | infarction volume [2, 6]: reduced | postischemic blood flow [2, 6]: restored | intracerebral hemorrhage ([2]; following stroke, spectrophotometric): no significant increase | cerebral infarct volume ([2]; preoperative administration, aspirin 5 mg/kg): dose-dependent diminution | platelet accumulation in the ipsilateral cerebral hemisphere ([2]; pretreated with 8 mg/kg i.v.): inhibited | mortality [2, 7]: reduced | neurological deficit [2, 7]: reduced | infarct volume in CD39−/− mice ([2]; reconstituted CD39−/− mice): markedly diminished | inhibition of platelet aggregation at two weeks (platelets): 30% | ATPase activity, CPM × 10^3 (net counts) ([3]; 10 μL): 20.1 CPM × 10^3 | ATPase activity, CPM × 10^3 (net counts) ([3]; 20 μL): 36.0 CPM × 10^3 | ATPase activity, CPM × 10^3 (net counts) ([3]; 30 μL): 51.0 CPM × 10^3 | Activity (pmol ATP/min/μg) × 10^3 ([3]; specific activity in COS-1 CM, concentration by ELISA): 5.67 (pmol ATP/min/μg) × 10^3 | Fibrin Deposition Ratio [4, 8]: 0.62 ± 0.10 | Platelet Deposition Ratio [4, 8]: 1.25 ± 0.19 | Bleeding Time ([4]; 30 minutes after administration): 7.00 ± 0.81 | medial injury score ([4]; histology, scale of 1-4): 2.2 | medial separation score ([4]; histology, scale of 1-4): 1.6 | degree of hemorrhage ([4]; pig, in vivo): 2.5 | tolerability ([4]; pigs, PTCA): well tolerated | composite injury score ([4]; total of three scores): 6.2 | survival at thirty minutes on post-ischemic lung [5]: survived | ex vivo platelet aggregation, collagen (murine platelets; 2.5 μg/ml collagen): attenuated | ex vivo platelet aggregation, ADP (murine platelets; 10 μM ADP): abrogated | ex vivo platelet aggregation, arachidonate (murine platelets; 0.1 mM sodium arachidonate): attenuated
